The values below come from the supplement of paper PMC9170038.

Data set [1] has as its system MS2 coat protein. As to the kind of experiment: apparent KD of MS2 coat protein; designed switch direction (-1 OFF switch, 1 ON switch): 1; higher = weaker reporter binding. The note with it: input ligand: microRNA oligo, concentration not stated. The gist of the method:
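RNA switches sharing common flanks were transcribed by stalled E. coli RNA polymerase on Illumina chips. A doubling series of SNAP-549-labelled MS2 coat protein, from 0.7 or 1.5 nM to 3 µM, was applied in Tris-HCl pH 7.5 buffer with KCl, MgCl2, BSA, DTT, tRNA and Tween-20. Each step lasted 0.8–1.5 h at the bottom of the series and 10–20 min at the top. Normalised cluster fluorescence was curve-fitted, giving apparent KD as the per-design median over clusters.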

The test system of data set [2] is MS2 coat protein. In words: apparent KD of MS2 coat protein; higher = weaker reporter binding. The note with it: Eterna round: R107. The gist of the method:
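Binding of SNAP-549-labelled MS2 coat protein was measured on designed RNA switches transcribed on-chip from Illumina sequencing clusters. The protein rose in twofold steps from 0.7 or 1.5 nM to 3 µM, with 0.8–1.5 h per step early on and 10–20 min per step later, in 100 mM Tris-HCl pH 7.5, 80 mM KCl, 4 mM MgCl2, without or with constant ligand. Each design's apparent KD is the median of fits to its normalised cluster binding curves.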

Where [3] appears, read: input ligand: theophylline 20 uM.
Where [4] appears, read: input ligand: theophylline 2 mM.
Setting [5] is: input ligand: tryptophan 2.4 mM.

Regarding “AAAAAACAUGAGGAUCACCCAUGUAAAAAAAUGGGAGGAUAUCUGAAUUAAUUAAAUUAAGGAGAAGGCCUAAAAA [71%, Same state of confusion2, 4] (Eterna round: R96, puzzle: Same State 1)”, in the data set on MS2 coat protein [1], the “apparent KD of MS2 coat protein” value was 192 nM.
“UGAUACCAGUCGGCCGCCACUACAUGAGGAUCACCCAUGUAUCCUCAACUGCUAGAUACUAGCAGUAGGACCGGGACUGGUAUCU”: the “apparent KD of MS2 coat protein” value in the data set on MS2 coat protein [2] (input ligand: arginine 13.2 mM) was 164 nM; in the data set with MS2 coat protein [2] (setting [3]) it was 408 nM; in the data set on MS2 coat protein [2] (setting [4]) it was 459 nM.
In the case of “UGCGAUUGCUCAGAUACCAGACAUGAGGAUCACCCAUGUACCAAGGUAAAGAAAUAACGUGUCCCUUGGCAGCUGAGCAAUCGCU [MAT - Exclusion Theophlline B - Mod of Eli - D9]”, the “apparent KD of MS2 coat protein” value in the data set on MS2 coat protein [2] (input ligand: arginine 13.2 mM) was 11.9 nM; in the data set with MS2 coat protein [2] (setting [3]) it was 14 nM; with MS2 coat protein [2] (setting [5]), 11.3 nM.
As to “UGGGAAGGAGGAAGGAGCGCCAUAAGGGUGACUGUCUGGGUACAUGAGGAUCACCCAUGUAGGCAGGUAGGUCGCCUCGCUCUCA [Bibienoned]”, the “apparent KD of MS2 coat protein” value with MS2 coat protein [2] (input ligand: arginine 13.2 mM) came to 10.3 nM; with MS2 coat protein [2] (input ligand: none), 10.1 nM; in the data set with MS2 coat protein [2] (setting [3]) it was 11.9 nM; with MS2 coat protein [2] (setting [4]) it was 10.4 nM; in the data set with MS2 coat protein [2] (setting [5]) it was 10.4 nM.
As to “UGGGUACAUGAGGAUCACCCAUGUACUGAAGGAGCGAGAAUUAUCUCAGGUAGGUCGCAGACAUGAGGAUCACCCAUGUAGUAGG [Exclusion Arginine A GF 12]”, the “apparent KD of MS2 coat protein” value in the data set on MS2 coat protein [2] (input ligand: arginine 13.2 mM) worked out at 25.3 nM; in the data set with MS2 coat protein [2] (input ligand: none) it was 27.3 nM; in the data set on MS2 coat protein [2] (setting [3]) it was 30.6 nM; with MS2 coat protein [2] (setting [4]), 37.2 nM; in the data set with MS2 coat protein [2] (setting [5]) it was 24.2 nM.
Take “UGGGUACCGACGGCCGCCACUGAAUAUAGACAUGAGGAUCACCCAUGUAGAGAUCCUAGAAUAAACAGGACCGGGUCUGGUGCUA [Exclusion Tryptophane B GF5]”: the “apparent KD of MS2 coat protein” value with MS2 coat protein [2] (input ligand: arginine 13.2 mM) was found to be 92.4 nM; with MS2 coat protein [2] (setting [3]), 239 nM; in the data set on MS2 coat protein [2] (setting [4]) it was 293 nM.
With “UGUAACAUGAGGAUCACCCAUGUGAGUGAUACCAGACUAGUGUUAGUCCCUUGGCAGCACGCUGGACGAAUGUGUAGUCUAUGCG [Same State - Theophylline A (Freestyle 19)]”, the “apparent KD of MS2 coat protein” value with MS2 coat protein [2] (input ligand: arginine 13.2 mM) was 55.8 nM; in the data set with MS2 coat protein [2] (input ligand: none), 78 nM; in the data set on MS2 coat protein [2] (setting [3]), 108 nM; with MS2 coat protein [2] (setting [4]), 58.3 nM; in the data set on MS2 coat protein [2] (setting [5]), 63.9 nM.
For “UGUACCAUGUCGGCCGCCACUCAUGAUAAACAAGAGGAUCACCCUUGUAGCGUCAAAGACGCUAUGAGGACCGGGACAUGGUACU [TryBS Zipper 2]” the same measures were 29.5 nM, 29.7 nM, 41.2 nM, 43.9 nM and 15.5 nM.
For the sequence “UGUACCUGUAUCUGGUCCAUAGUAUAACCUCGAGGACCGGUACGGCCGCCACUCGUCGGACCACAUGAGGAUCACCCAUGUACCG [theeternabot_exclusion_MS2_Trp_A_23]”, the “apparent KD of MS2 coat protein” value in the data set on MS2 coat protein [2] (input ligand: arginine 13.2 mM) is 12.9 nM; with MS2 coat protein [2] (setting [3]), 17.8 nM; in the data set with MS2 coat protein [2] (setting [4]) it was 14.1 nM.
As to “UGUAUGGACUGAAGGAGCGCCUCAAAAUAUCAUGAGGAUCACCCAUGGAAGGCGAAAGCCGGGCAGGUAGGUCGCAGUCCAUACU [ArgBX 3]”, the “apparent KD of MS2 coat protein” value in the data set on MS2 coat protein [2] (input ligand: arginine 13.2 mM) was determined as 20.2 nM; with MS2 coat protein [2] (input ligand: none), 15.6 nM; with MS2 coat protein [2] (setting [3]), 19.1 nM; in the data set with MS2 coat protein [2] (setting [4]), 15.6 nM; in the data set with MS2 coat protein [2] (setting [5]), 13.4 nM.
For “UGUAUGGACUGAAGGAGCGCCUCAAACAUGAGGAUCACCCAUGUGGACAAAUAAGUCCUUGGGCAGGUAGGUCGCAGUCCAUACU [ArgBX 7 #StaticStem #MS2Late]”, the “apparent KD of MS2 coat protein” value in the data set on MS2 coat protein [2] (input ligand: arginine 13.2 mM) was determined as 73.5 nM; with MS2 coat protein [2] (input ligand: none) it was 82.8 nM; in the data set on MS2 coat protein [2] (setting [3]) it was 91.2 nM; in the data set on MS2 coat protein [2] (setting [4]) it was 90.6 nM; in the data set with MS2 coat protein [2] (setting [5]), 66.1 nM.
Consider “UGUAUGGACUGAAGGAGCGGAAAAUAAACCUGAGGAUCACCCGGGUAAUAGGCGAAAGCCAUCCAGGUAGGUCGCAGUCCAUACU”, for which the “apparent KD of MS2 coat protein” value amounted to 156 nM in the data set with MS2 coat protein [2] (input ligand: arginine 13.2 mM), 233 nM in the data set on MS2 coat protein [2] (setting [3]), 385 nM in the data set with MS2 coat protein [2] (setting [4]) and 291 nM in the data set with MS2 coat protein [2] (setting [5]).
On the same counts, the results for “UGUAUGGACUGAAGGAGCGGGUAAAUAACCUGAGGAUCACCCAGGUAAAAGGCGAAAGCCACCCAGGUAGGUCGCAGUCCAUACU” are 10.6 nM, 13.7 nM, 12.7 nM and 11 nM.
As to “UGUAUGUGAUCUGAUACCAGAGUGAAUAAACCUGAGGAUCACCCUGGUAGGCGAAAGCCACUCCCUUGGCAGCAGAUCGCAUACU”, the “apparent KD of MS2 coat protein” value was 102 nM in the data set on MS2 coat protein [2] (input ligand: arginine 13.2 mM); 139 nM in the data set with MS2 coat protein [2] (input ligand: none); 112 nM in the data set on MS2 coat protein [2] (setting [3]); 38.6 nM in the data set with MS2 coat protein [2] (setting [4]); 141 nM in the data set with MS2 coat protein [2] (setting [5]).
For “UGUAUGUGAUCUGAUACCAGAGUUGAUAAUCUGAGGAUCACCCUGGUAAGGCGAAAGCCACUCCCUUGGCAGCAGAUCGCAUACU” the same measures were 106 nM, 306 nM, 874 nM, 175 nM and 725 nM.
On the same counts, the results for “UGUAUGUGAUCUGAUACCAGCCUCAUAACUUGAGGAUCACCCAAGUGGAGCGGAAACGCUGGCCCUUGGCAGCAGAUCGCAUACU [TheoBS 2 #AlternativeMS2]” are 205 nM, 460 nM, 200 nM, 15.3 nM and 556 nM.
As to “UGUAUGUGAUCUGAUACCAGUCCAACUGGUAAAACUUGAGGAUCACCCAGGUAAAAUUGGGACCCUUGGCAGCAGAUCGCAUACU”, the “apparent KD of MS2 coat protein” value in the data set with MS2 coat protein [2] (input ligand: arginine 13.2 mM) worked out at 150 nM; with MS2 coat protein [2] (input ligand: none) it was 316 nM; in the data set with MS2 coat protein [2] (setting [3]), 597 nM; with MS2 coat protein [2] (setting [4]) it was 129 nM; in the data set with MS2 coat protein [2] (setting [5]) it was 705 nM.
